Test [1] has as its system collagen. Put plainly: Western blot analysis of collagen (anti-collagen I antibody) in foreskin fibroblast cells. It is filed as cell-based. As for the experimental part:
(§1) In order to measure the collagen transcript RNA induced by the AIMP1, foreskin fibroblast cells (5×10^4 cells/well; obtained from MTT; accession number: MC1232) were cultured in 10% serum-containing DMEM medium on a 6-well plate for 12 hours and then cultured in serum-free medium for about 3 hours. Next, the cultured cells were treated with the AIMP1 (SEQ ID NO: 1) at varying AIMP1 concentrations of 0, 20, 50, 100 and 200 nM for 6 hours (RT-PCR) or 12 hours (Western blot).
The cells treated with the AIMP1 at varying AIMP1 concentrations in Example <1-1> were collected and lysed in a cell lysis buffer (50 mM HEPES, pH 7.5, 150 mM NaCl, 10% glycerol, 5 mM EGTA, 1 mM sodium orthovanadate, 10 mM NaF, 12 mM b-glycerophosphate, 1 mM DTT, 1 mM PMSF, […] aprotinin, and 1% NP40). Lysed cells were centrifuged at 26,000 g for 15 minutes and the cell extract was isolated. 30 μg of the cell extract was separated by 8% SDS-PAGE and immunoblotted with an anti-collagen I antibody (Abcam) according to any conventional method known in the art. As a control group, an anti-tubulin antibody (Sigma) was used.
(§2) Foreskin fibroblast cells (5×10^4 cells/well) were cultured in 10% serum-containing DMEM medium on a 6-well plate for 12 hours, and then, cultured in serum-free medium for about 3 hours. Next, the cultured cells were treated with 100 nM of the AIMP1 at various time intervals (0, 2, 4, 6, 12 and 24 hours).
Foreskin fibroblast cells (5×10^5 cells/well) were cultured in 10% serum-containing DMEM medium on a 6-well plate for 48 hours and then cultured in serum-free medium for about 3 hours. Next, the cultured cells were treated with each of the AIMP1 (SEQ ID NO: 1) and the AIMP1 N-terminal fragments (SEQ ID NOS: 2 and 12) at a concentration of 200 nM for 12 hours. As a control group, cells without treatment were used.
The cells treated with each of the AIMP1 and its N-terminal fragments and the control cells were collected at the indicated time and subjected to Western blot analysis in the same manner as in Example <1-3>.

In the next test the test system is KGF. Put plainly: RT-PCR analysis of KGF expression in foreskin fibroblast cells. It is filed as cell-based. Particulars: 100 nM for 2 hours, FIG. 4. As for the experimental part:
From foreskin fibroblast cells treated with 100 nM of the AIMP1 for 2 hours, the total RNA was extracted in the same manner as described in Example <1-2>. Then, the extract was amplified by RT-PCR using KGF-specific primers (SEQ ID NO: 8 and SEQ ID NO: 9). The control groups were amplified using cyclin D-specific primers (SEQ ID NO: 10 and SEQ ID NO: 11) and GADPH-specific primers (SEQ ID NO: 6 and SEQ ID NO: 7), respectively. The PCR reaction consisted of: predenaturation of the template DNA at 95° C. for 5 min, followed by 25 cycles of 1 min at 95° C., 1 min at 52° C. and 1 min at 72° C., and then, a final extension for 5 min at 72° C.
(§3) Foreskin fibroblast cells (5×10^4 cells/well) were cultured in 10% serum-containing DMEM medium on a 6-well plate about 12 hours, and then, cultured in serum-free medium for about 3 hours. Then, the cultured cells were treated with 100 nM of the N-terminal and C-terminal fragments of the AIMP1 prepared in Reference Example 1, at various time intervals of 0, 1, 2, 4, and 6 hours. Then, RT-PCR was performed in the same manner as in Example <1-2> using each of collagen-specific primers (SEQ ID NO: 4 and SEQ ID NO: 5), KGF-specific primers (SEQ ID NO: 8 and SEQ ID NO: 9) and GADPH-specific primers (SEQ ID NO: 6 and SEQ ID NO: 7).
(§4) Foreskin fibroblast cells (5×10^4 cells/well) were cultured in 10% serum-containing DMEM medium on a 6-well plate for 12 hours and then cultured in serum-free medium for about 3 hours. Next, the cultured cells were treated with each of the N-terminal fragments (SEQ ID NOS: 12, 13 and 14) and C-terminal fragment (SEQ ID NO: 15) of AIMP1 prepared in Reference Example 2 at an concentration of 100 nM for 2 hours and 6 hours, respectively. The treated cells were subjected to RT-PCR using collagen-specific primers (SEQ ID NOS: 4 and 5), KGF-specific primers (SEQ ID NOS: 8 and 9) and GADPH-specific primers (SEQ ID NOS: 6 and 7) in the same manner as in Example <1-2>.

Test [2] concerns collagen. Put plainly: Collagen immunofluorescent staining of wound site in wild-type and AIMP1-deficient mice. Format: in vivo, mouse. To be noted: WT and AIMP1-/- mice; 4 μg applied on wound site twice a day until 3 days after wounding; FIG. 3. From the text: By the gene trap method known in the art (Zambrowicz, B. P., et al., Nature 392:608-611, 1998; Kim J Y et al., Proc. Natl. Acad. Sci. USA 99:7912-7916, 2002), a mutation in the AIMP1 gene of a male C57BL6 mouse was induced to prepare a AIMP1 gene deficient homozygous mouse (AIMP1^−/− mouse, Ho) (Park S. G. et al., Am. J. Pathol., in press: 2005). Then, on the back of each of the 8-week-old homozygous mouse and wild-type mouse (AIMP1^+/+ mice, WT), a circular cut-off window with a diameter of 0.5 cm was made with scissors. The wound site was left to stand without dressing. 4 μg of the AIMP1 prepared in Reference Example 1 was dissolved in 5 μl of 20% glycerol-containing PBS and applied on the wound site. The AIMP1 applied twice a day until 3 days after wounding. A control group (AIMP1-untreated group) was treated with 20% glycerol-containing PBS. Then, the tissue of the wound site was isolated using scissors and fixed in 4% paraformaldehyde overnight. The fixed tissue was washed with PBS, incubated in 30% sucrose solution for 4 hours, and then mixed with an OCT (optimal cutting temperature) compound and frozen at −70° C.
6 μm of the frozen section was attached to a silane-coated slide and washed with PBS. Then, the slide was blocked with PBS containing 0.1% tween 20 and 1% non-fat dry milk and allowed to react with an anti-collagen I antibody (Abcam) at 37° C. for 2 hours. […]

For test [3], the system named is collagen. Put plainly: RT-PCR analysis of collagen transcript in foreskin fibroblast cells. It is filed as cell-based. As for the experimental part: as §1
The cells treated with the AIMP1 at varying concentrations in Example <1-1> were collected and dissolved in TRIzol (invitrogen). 10% by weight of chloroform was added to the cell lysate, and mixed well. The mixture was centrifuged at 12,000 g for 15 minutes and the supernatant was collected. Ethanol was added to the collected supernatant to a final concentration of 70%. Then, the supernant was centrifuged at 26,000 g for 5 minutes and the precipitant was collected. The precipitant was dried and dissolved in sterilized distilled water, and the total RNA was extracted. 3 μg of the total RNA was used to prepare cDNA. Then, the cDNA was amplified by PCR using collagen-specific primers (SEQ ID NO: 4 and SEQ ID NO: 5). At this time, for use as a control group, the cDNA was subjected to PCR using GADPH-specific primers (SEQ ID NO: 6 and SEQ ID NO: 7). The PCR reaction consisted of: pre-denaturation of the template DNA at 95° C. for 5 min, followed by 25 cycles of 1 min at 95° C., 1 min at 52° C. and 1 min at 72° C., and then a final extension for 5 min at 72° C.
as §2, §3, §4

Here are results for 1 molecule from patent publication US20100167997A1, “METHOD FOR STIMULATION COLLAGEN SYNTHESIS AND/OR KGF EXPRESSION” (ATYR PHARMA, INC., priority 2005, published 2010).

B1: AIMP1: ARS-interacting multi-functional protein 1, a protein consisting of 312 amino acids (SEQ ID NO: 1) (protein, listed as Homo sapiens)
chain: MANNDAVLKRLEQKGAEADQIIEYLKQQVSLLKEKAILQATLREEKKLRVENAKLKKEIEELKQELIQAEIQNGVKQIAFPSGTPLHANSMVSENVIQSTAVTTVSSGTKEQIKGGTGDEKKAKEKIEKKGEKKEKKQQSIAGSADSKPIDVSRLDLRIGCIITARKHPDADSLYVEEVDVGEIAPRTVVSGLVNHVPLEQMQNRMVILLCNLKPAKMRGVLSQAMVMCASSPEKIEILAPPNGSVPGDRITFDAFPGEPDKELNPKKKIWEQIQPDLHTNDECVATYKGVPFEVKGKGVCRAQTMSNSGIK
Regarding B1, the “synthesis of collagen, protein levels (Western blot), varying concentrations” value in the test with collagen [1] (0, 20, 50, 100 and 200 nM for 12 hours, FIG. 1 bottom) is given as “stimulated the synthesis of collagen in fibroblast cells in dose-dependent manners”. Further, in the test with collagen [1] (100 nM, 0, 2, 4, 6, 12 and 24 hours, FIG. 2 bottom), the “synthesis of collagen, protein levels (Western blot), various time intervals” value is “stimulated the synthesis of collagen”. Besides, the “synthesis of collagen, protein levels (Western blot), compared with cells without treatment” value in the test on collagen [1] (200 nM for 12 hours, FIG. 7) is on record as “more stimulated”. For the same molecule, the “expression of KGF (RT-PCR)” value with KGF is listed as “increased”. In the test on collagen [2], the “amount of collagen at wound site (immunofluorescence)” value is “further increased”. The “synthesis of collagen (RT-PCR), varying concentrations” value in the test with collagen [3] (0, 20, 50, 100 and 200 nM for 6 hours, FIG. 1 upper) is listed as “stimulated the synthesis of collagen in fibroblast cells in dose-dependent manners”. Further, the “synthesis of collagen (RT-PCR), various time intervals” value in the test on collagen [3] (100 nM, 0, 2, 4, 6, 12 and 24 hours, FIG. 2 upper) was “stimulated the synthesis of collagen in fibroblast cells in time-dependent manners”.
